# According to publication PMC2754075 (Nature cell biology, 2009):
# Target: MBP-VPRBP (UniProt Q9Y4B6 1-1507)
# Test: pull-down
# Sequence of MBP-VPRBP (Q9Y4B6 whole entry): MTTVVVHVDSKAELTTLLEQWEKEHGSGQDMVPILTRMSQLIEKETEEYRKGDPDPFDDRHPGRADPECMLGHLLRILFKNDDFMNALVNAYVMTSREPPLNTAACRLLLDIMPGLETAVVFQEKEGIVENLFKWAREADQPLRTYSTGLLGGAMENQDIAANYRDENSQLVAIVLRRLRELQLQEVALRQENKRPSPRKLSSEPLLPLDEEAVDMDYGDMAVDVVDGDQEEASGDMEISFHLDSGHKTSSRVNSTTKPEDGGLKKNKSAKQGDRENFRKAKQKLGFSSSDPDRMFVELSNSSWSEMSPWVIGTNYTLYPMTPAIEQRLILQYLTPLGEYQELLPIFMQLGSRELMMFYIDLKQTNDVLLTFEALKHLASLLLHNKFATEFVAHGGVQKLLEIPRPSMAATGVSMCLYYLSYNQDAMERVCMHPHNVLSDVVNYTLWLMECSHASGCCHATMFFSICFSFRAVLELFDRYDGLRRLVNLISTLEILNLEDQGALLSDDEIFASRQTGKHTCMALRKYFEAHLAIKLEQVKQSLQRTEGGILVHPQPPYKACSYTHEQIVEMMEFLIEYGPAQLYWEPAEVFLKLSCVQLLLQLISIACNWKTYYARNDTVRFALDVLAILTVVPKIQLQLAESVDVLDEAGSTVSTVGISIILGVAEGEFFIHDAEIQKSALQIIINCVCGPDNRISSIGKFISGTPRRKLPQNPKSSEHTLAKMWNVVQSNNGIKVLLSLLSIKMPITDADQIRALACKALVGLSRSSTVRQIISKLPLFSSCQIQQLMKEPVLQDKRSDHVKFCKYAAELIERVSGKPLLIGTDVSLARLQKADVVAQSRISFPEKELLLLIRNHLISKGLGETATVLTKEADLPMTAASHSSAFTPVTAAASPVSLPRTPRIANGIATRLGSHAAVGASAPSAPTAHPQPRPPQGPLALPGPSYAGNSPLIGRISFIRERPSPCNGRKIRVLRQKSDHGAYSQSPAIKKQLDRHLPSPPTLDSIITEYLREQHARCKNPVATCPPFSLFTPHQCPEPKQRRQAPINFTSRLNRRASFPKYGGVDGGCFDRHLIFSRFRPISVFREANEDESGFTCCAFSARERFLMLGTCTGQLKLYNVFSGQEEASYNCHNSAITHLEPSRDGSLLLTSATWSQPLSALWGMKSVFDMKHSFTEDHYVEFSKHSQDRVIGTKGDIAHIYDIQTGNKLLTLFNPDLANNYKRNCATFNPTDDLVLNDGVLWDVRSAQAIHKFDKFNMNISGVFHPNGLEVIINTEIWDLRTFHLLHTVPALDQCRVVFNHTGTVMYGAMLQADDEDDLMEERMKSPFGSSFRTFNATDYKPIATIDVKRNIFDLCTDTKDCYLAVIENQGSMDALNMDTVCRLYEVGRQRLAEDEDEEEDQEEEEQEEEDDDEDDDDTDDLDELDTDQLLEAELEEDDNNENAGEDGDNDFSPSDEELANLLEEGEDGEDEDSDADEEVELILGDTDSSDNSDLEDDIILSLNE
binder,measurement,value
GST-Katanin (natural protein) MSLLMISENVKLAREYALLGNYDSAMVYYQGVLDQMNKYLYSVKDTYLQQKWQQVWQEINVEAKHVKDIMKTLESFKLDSTPLKAAQHDLPASEGEVWSMPVPVERRPSPGPRKRQSSQYSDPKSHGNRPSTTVRVHRSSAQNVHNDRGKAVRCREKKEQNKGREEKNKSPAAVTEPETNKFDSTGYDKDLVEALERDIISQNPNVRWDDIADLVEAKKLLKEAVVLPMWMPEFFKGIRRPWKGVLMVGPPGTGKTLLAKAVATECKTTFFNVSSSTLTSKYRGESEKLVRLLFEMARFYSPATIFIDEIDSICSRRGTSEEHEASRRVKAELLVQMDGVGGTSENDDPSKMVMVLAATNFPWDIDEALRRRLEKRIYIPLPSAKGREELLRISLRELELADDVDLASIAENMEGYSGADITNVCRDASLMAMRRRIEGLTPEEIRNLSKEEMHMPTTMEDFEMALKKVSKSVSAADIERYEKWIFEFGSC,binding result,binds
